B1: Sperm microtubule associated protein 2 (Homo sapiens), Q9P2T0 (parent)
chain: MGDSRRRSLGNQPSSEAAGRSEREQDGDPRGLQSSVYESRRVTDPERQDLDNAELGPEDPEEELPPEEVAGEEFPETLDPKEALSELERVLDKDLEEDIPEISRLSISQKLPSTTMTKARKRRRRRRLMELAEPKINWQVLKDRKGRCGKGYAWISPCKMSLHFCLCWPSVYWTERFLEDTTLTITVPAVSRRVEELSRPKRFYLEYYNNNRTTPVWPIPRSSLEYRASSRLKELAAPKIRDNFWSMPMSEVSQVSRAAQMAVPSSRILQLSKPKAPATLLEEWDPVPKPKPHVSDHNRLLHLARPKAQSDKCVPDRDPRWEVLDVTKKVVASPRIISLAKPKVRKGLNEGYDRRPLASMSLPPPKASPEKCDQPRPGL
B2: Guanine nucleotide exchange factor for Rab-3A (Homo sapiens), Q8TBN0 (parent)
chain: MWSGPPQPDQGLPPPLAAVPVPWKSTDPCQGHRESPGALVETSAGEEAQGQEGPAAAQLDVLRLRSSSMEIREKGSEFLKEELHRAQKELKLKDEECERLSKVREQLEQELEELTASLFEEAHKMVREANMKQAASEKQLKEARGKIDMLQAEVTALKTLVITSTPASPNRELHPQLLSPTKAGPRKGHSRHKSTSSTLCPAVCPAAGHTLTPDREGKEVDTILFAEFQAWRESPTLDKTCPFLERVYREDVGPCLDFTMQELSVLVRAAVEDNTLTIEPVASQTLPTVKVAEVDCSSTNTCALSGLTRTCRHRIRLGDSKSHYYISPSSRARITAVCNFFTYIRYIQQGLVRQDAEPMFWEIMRLRKEMSLAKLGFFPQEA
B3: Activated CDC42 kinase 1 (Homo sapiens), Q07912-2 (parent)
chain: MQPEEGTGWLLELLSEVQLQQYFLRLRDDLNVTRLSHFEYVKNEDLEKIGMGRPGQRRLWEAVKRRKALCKRKSWMSKVFSGKRLEAEFPPHHSQSTFRKTSPAPGGPAGEGPLQSLTCLIGEKDLRLLEKLGDGSFGVVRRGEWDAPSGKTVSVAVKCLKPDVLSQPEAMDDFIREVNAMHSLDHRNLIRLYGVVLTPPMKMVTELAPLGSLLDRLRKHQGHFLLGTLSRYAVQVAEGMGYLESKRFIHRDLAARNLLLATRDLVKIGDFGLMRALPQNDDHYVMQEHRKVPFAWCAPESLKTRTFSHASDTWMFGVTLWEMFTYGQEPWIGLNGSQILHKIDKEGERLPRPEDCPQDIYNVMVQCWAHKPEDRPTFVALRDFLLEAQPTDMRALQDFEEPDKLHIQMNDVITVIEGRAENYWWRGQNTRTLCVGPFPRNVVTSVAGLSAQDISQPLQNSFIHTGHGDSDPRHCWGFPDRIDECPFSAFSPGHPPAETCGQVLWTGRREACASDPRLHPVSSRTKGL
partner: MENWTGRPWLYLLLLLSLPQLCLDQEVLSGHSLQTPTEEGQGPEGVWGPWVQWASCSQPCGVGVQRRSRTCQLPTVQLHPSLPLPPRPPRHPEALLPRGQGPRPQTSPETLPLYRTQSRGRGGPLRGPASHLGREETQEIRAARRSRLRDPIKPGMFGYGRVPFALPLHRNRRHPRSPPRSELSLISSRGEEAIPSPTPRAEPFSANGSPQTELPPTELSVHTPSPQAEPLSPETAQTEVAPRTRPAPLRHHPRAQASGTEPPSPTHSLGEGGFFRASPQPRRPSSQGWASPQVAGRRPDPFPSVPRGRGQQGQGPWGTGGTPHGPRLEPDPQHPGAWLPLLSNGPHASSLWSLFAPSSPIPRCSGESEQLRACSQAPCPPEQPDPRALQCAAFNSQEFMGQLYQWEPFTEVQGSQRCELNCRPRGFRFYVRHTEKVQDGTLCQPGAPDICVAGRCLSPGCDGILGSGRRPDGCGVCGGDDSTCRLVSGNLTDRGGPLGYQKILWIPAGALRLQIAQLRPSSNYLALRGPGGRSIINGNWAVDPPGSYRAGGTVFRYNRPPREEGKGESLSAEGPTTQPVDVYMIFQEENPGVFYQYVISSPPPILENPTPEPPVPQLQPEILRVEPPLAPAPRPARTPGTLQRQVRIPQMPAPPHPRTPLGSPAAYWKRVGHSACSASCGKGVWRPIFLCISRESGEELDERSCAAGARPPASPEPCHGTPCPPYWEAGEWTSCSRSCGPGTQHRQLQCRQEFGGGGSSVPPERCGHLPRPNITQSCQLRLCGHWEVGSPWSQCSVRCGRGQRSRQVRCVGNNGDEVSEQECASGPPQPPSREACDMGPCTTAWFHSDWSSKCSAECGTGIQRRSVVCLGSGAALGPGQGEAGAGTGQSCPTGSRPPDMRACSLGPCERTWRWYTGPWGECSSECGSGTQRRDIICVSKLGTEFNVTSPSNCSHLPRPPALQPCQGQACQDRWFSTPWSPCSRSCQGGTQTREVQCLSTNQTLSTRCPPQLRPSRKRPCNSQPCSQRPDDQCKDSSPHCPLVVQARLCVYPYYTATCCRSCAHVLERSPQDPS
B4: Keratin, type II cytoskeletal 2 epidermal (Homo sapiens), P35908 (parent)
chain: MSCQISCKSRGRGGGGGGFRGFSSGSAVVSGGSRRSTSSFSCLSRHGGGGGGFGGGGFGSRSLVGLGGTKSISISVAGGGGGFGAAGGFGGRGGGFGGGSSFGGGSGFSGGGFGGGGFGGGRFGGFGGPGGVGGLGGPGGFGPGGYPGGIHEVSVNQSLLQPLNVKVDPEIQNVKAQEREQIKTLNNKFASFIDKVRFLEQQNQVLQTKWELLQQMNVGTRPINLEPIFQGYIDSLKRYLDGLTAERTSQNSELNNMQDLVEDYKKKYEDEINKRTAAENDFVTLKKDVDNAYMIKVELQSKVDLLNQEIEFLKVLYDAEISQIHQSVTDTNVILSMDNSRNLDLDSIIAEVKAQYEEIAQRSKEEAEALYHSKYEELQVTVGRHGDSLKEIKIEISELNRVIQRLQGEIAHVKKQCKNVQDAIADAEQRGEHALKDARNKLNDLEEALQQAKEDLARLLRDYQELMNVKLALDVEIATYRKLLEGEECRMSGDLSSNVTVSVTSSTISSNVASKAAFGGSGGRGSSSGGGYSSGSSSYGSGGRQSGSRGGSGGGGSISGGGYGSGGGSGGRYGSGGGSKGGSISGGGYGSGGGKHSSGGGSRGGSSSGGGYGSGGGGSSSVKGSSGEAFGSSVTFSFR
B5: IQ motif and ubiquitin-like domain-containing protein (Homo sapiens), Q8NA54 (parent)
chain: MSNQQEKYEAQNIVNSTEESDDAFDTVTIPVPSEEPQESDQTEEHESGIEQFSESHAIHVEEQSDQSFSSLEPDNEQLMEEVISPRQVSYTPQHHEKQYAMQRPNDDSLAFLDKIKSVKESLQESVEDSLATVKVVLIPVGQEIVIPFKVDTILKYLKDHFSHLLGIPHSVLQIRYSGKILKNNETLVQHGVKPQEIVQVEIFSTNPDLYPVRRIDGLTDVSQIITVTVQTGLDQYQQVPVEIVKSDFHKPFLGGFRHKVTGVEYHNAGTQTVPKRIPERLSIFCRDTQTVFQKKNLQQTTNTTSTQMTNIGVYVSNMTDKLVTPGKYFSAAEYHAQRLKAVIVIQTYYRQWHAKIFVENLRRQKSLRLEWETQQELRKIREKEEWIKLDYHRRHNPKTNEDFEFLYNALEFWRQEELTRINQSFTGAERKAALCELLEKETQIIASIGRHRYIAYMANQEAAIQAFLDKCSAPKIWRTPNGKTIEMDTQFTIRARELQNIYKCIMLKNISQDERLDVLLTLKHTVKEHECKLTQEILELIDREVDLMMRGVKHHNLEGLRKRIATLFFHYIKTPLFNPEVAKYLKVPQDPLKFYKKIYFCHSCQLYLPSTEFSVSSTSRRIYRCRNCINLQNEAQKRESFLKYKCLLQQLYYTEADYEDDSKIAFLMQLQDIQYLTENIWASQSVLSACDNLSDLVMVRWNKSLEWSPWNCILLTKDEAAAHLKLTSIEEGYERSFIHKIKHKHILAKNYFSQVPVLASFILDDGEIDEIRWKYHSDTTPKIIESQRPPH

Variants of: B1
Conditions: with fhl3_human FHL3, Q13643
Chain of fhl3_human FHL3, Q13643 (Q13643 whole entry): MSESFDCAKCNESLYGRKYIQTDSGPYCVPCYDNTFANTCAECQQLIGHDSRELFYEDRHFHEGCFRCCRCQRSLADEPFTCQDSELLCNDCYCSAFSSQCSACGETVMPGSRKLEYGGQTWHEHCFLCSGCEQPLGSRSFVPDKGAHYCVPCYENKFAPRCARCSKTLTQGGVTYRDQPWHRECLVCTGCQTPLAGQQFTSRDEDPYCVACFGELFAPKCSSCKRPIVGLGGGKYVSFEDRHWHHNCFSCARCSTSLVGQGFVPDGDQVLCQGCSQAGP

| Variant | effect of a mutation on the interaction |
| --- | --- |
| R231H | with no effect |
| D79G | with no effect |
| R147C | with no effect |
| L131R | with no effect |
| T184A | with no effect |

Variants of: B2
Conditions: with rb11a_human RAB11A

| Variant | effect of a mutation on the interaction |
| --- | --- |
| T26A | with no effect |
| S190P | with no effect |
| H323Y | with no effect |

Variants of: B3
Conditions: with atl4_human ADAMTSL4, Q6UY14

| Variant | effect of a mutation on the interaction |
| --- | --- |
| R34L | with no effect |

Variants of: B4
Conditions: with KRT19, P08727
Chain of KRT19, P08727 (P08727 whole entry): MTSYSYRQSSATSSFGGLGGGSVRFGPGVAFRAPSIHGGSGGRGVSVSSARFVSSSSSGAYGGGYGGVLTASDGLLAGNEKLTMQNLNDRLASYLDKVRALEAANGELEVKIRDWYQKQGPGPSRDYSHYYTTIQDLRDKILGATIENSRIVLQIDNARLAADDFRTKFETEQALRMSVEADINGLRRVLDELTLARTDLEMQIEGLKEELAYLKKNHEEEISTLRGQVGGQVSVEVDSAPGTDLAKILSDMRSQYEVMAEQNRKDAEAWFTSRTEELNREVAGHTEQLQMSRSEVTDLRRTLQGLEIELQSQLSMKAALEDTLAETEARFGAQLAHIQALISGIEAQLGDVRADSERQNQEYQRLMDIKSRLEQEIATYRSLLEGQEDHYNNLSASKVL

| Variant | effect of a mutation on the interaction |
| --- | --- |
| A517G | with no effect |

Variants of: B5
Conditions: with tri23_human TRIM23, P36406
Chain of tri23_human TRIM23, P36406 (P36406 whole entry): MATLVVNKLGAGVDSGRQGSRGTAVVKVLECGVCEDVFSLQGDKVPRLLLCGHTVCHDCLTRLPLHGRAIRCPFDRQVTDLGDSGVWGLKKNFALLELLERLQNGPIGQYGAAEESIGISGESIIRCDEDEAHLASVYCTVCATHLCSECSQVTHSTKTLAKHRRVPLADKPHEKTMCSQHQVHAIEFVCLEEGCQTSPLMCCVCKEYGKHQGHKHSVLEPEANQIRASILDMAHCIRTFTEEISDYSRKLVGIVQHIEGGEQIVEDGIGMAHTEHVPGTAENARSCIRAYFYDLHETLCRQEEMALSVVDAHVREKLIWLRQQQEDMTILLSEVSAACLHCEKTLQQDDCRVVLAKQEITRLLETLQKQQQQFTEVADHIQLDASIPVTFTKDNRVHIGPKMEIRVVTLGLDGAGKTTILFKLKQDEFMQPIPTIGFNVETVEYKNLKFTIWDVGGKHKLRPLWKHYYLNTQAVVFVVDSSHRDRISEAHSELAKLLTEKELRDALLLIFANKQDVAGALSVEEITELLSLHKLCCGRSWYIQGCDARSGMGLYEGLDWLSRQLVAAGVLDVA

| Variant | effect of a mutation on the interaction |
| --- | --- |
| V126M | with no effect |

— IntAct's records for PubMed 31515488
